# Laboratory results from the supplement of paper PMC10567573.
# B1: TTC32 (parent)
# chain: YSAYIRRCACAASSDESPGSKCSP
# B2: EHMT1 (parent)
# chain: EEINKNISDFGRQQLLPPFPSLHQ
# Variants of: B1
# Experiment: protein stability index of a GFP-peptide fusion (GPS, HEK-293T) (PSI 1-6); higher = more stable
# Details: c terminus: a fixed tail appended
# 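Further: lentivirally expressed fusions sorted by FACS into six bins by GFP to DsRed ratio, PSI derived from sequencing read proportions per bin multiplied by bin number.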
row,Variant,protein stability index
1,YSAYIRRCACAASSDESPGSKCSI,2.25
2,YSAYIRRCACAASSDESPGSKCST,2.03
3,YSAYIRRCACAASSDESPGSKCSC,4.33
4,YSAYIRRCACAASSDESPGSKCSV,2.93
5,YSAYIRRCACAASSDESPGSKCSM,2.24
6,YSAYIRRCACAASSDESPGSKCSN,2.31
7,YSAYIRRCACAASSDESPGSKCSW,1.91
8,YSAYIRRCACAASSDESPGSKCSH,2.54
9,YSAYIRRCACAASSDESPGSKCSL,2.1
10,YSAYIRRCACAASSDESPGSKCSA,2.03
11,YSAYIRRCACAASSDESPGSKCSD,2
12,YSAYIRRCACAASSDESPGSKCSY,1.54
13,YSAYIRRCACAASSDESPGSKCSE,2.34
14,YSAYIRRCACAASSDESPGSKCSS,1.95
15,YSAYIRRCACAASSDESPGSKCSF,1.35
16,YSAYIRRCACAASSDESPGSKCSR,2.2
17,YSAYIRRCACAASSDESPGSKCSG,2.23
18,YSAYIRRCACAASSDESPGSKCSK,2.03
19,YSAYIRRCACAASSDESPGSKCSQ,2.04
20,YSAYIRRCACAASSDENPGSKCSP,2.22
21,YSAYIRRCACAASSDEIPGSKCSP,2.66
22,YSAYIRRCACAASSDEQPGSKCSP,1.96
23,YSAYIRRCACAASSDEWPGSKCSP,1.78
24,YSAYIRRCACAASSDELPGSKCSP,1.78
25,YSAYIRRCACAASSDEHPGSKCSP,1.85

row,Variant,protein stability index
1,YSAYIRRCACAASSDEMPGSKCSP,2.2
2,YSAYIRRCACAASSDEVPGSKCSP,2.02
3,YSAYIRRCACAASSDEPPGSKCSP,2.44
4,YSAYIRRCACAASSDERPGSKCSP,2.28
5,YSAYIRRCACAASSDETPGSKCSP,2.37
6,YSAYIRRCACAASSDEKPGSKCSP,1.94
7,YSAYIRRCACAASSDEYPGSKCSP,1.68
8,YSAYIRRCACAASSDESPGSKCWP,2.53
9,YSAYIRRCACAASSDESPGSKCLP,2.08
10,YSAYIRRCACAASSDESPGSKCGP,2.08
11,YSAYIRRCACAASSDESPGSKCCP,2.26
12,YSAYIRRCACAASSDESPGSKCVP,2.52
13,YSAYIRRCACAASSDESPGSKCRP,2.44
14,YSAYIRRCACAASSDESPGSKCYP,1.5
15,YSAYIRRCACAASSDESPGSKCMP,1.61
16,YSAYIRRCACAASSDESPGSKCTP,2.09
17,YSAYIRRCACAASSDESPGSKCAP,1.87
18,YSAYIRRCACAASSDESPGSKCDP,2.46
19,YSAYIRRCACAASSDESPGSKCQP,2.05
20,YSAYIRRCACAASSDESPGSKCKP,2.06
21,YSAYIRRCACAASSDESPGSKCFP,1.9
22,YSAYIRRCACAASSDESPGSKCHP,1.6
23,YSAYIRRCACAASSDESPGSKCPP,2.02
24,YSAYIRRCACAASSDESPGSKCEP,2.14
25,YSAYIRRCACAASSDESPGSKCIP,1.4

row,Variant,protein stability index
1,YSAYIRRCACAASSDESPGSKCNP,2.17
2,YSAYIRRCACAASSDESPGLKCSP,2.15
3,YSAYIRRCACAASSDESPGYKCSP,1.61
4,YSAYIRRCACAASSDESPGCKCSP,3.96
5,YSAYIRRCACAASSDESPGQKCSP,2.21
6,YSAYIRRCACAASSDESPGVKCSP,1.79
7,YSAYIRRCACAASSDESPGRKCSP,1.65
8,YSAYIRRCACAASSDESPGHKCSP,2.8
9,YSAYIRRCACAASSDESPGGKCSP,1.97
10,YSAYIRRCACAASSDESPGTKCSP,2.14
11,YSAYIRRCACAASSDESPGEKCSP,2.15
12,YSAYIRRCACAASSDESPGWKCSP,1.85
13,YSAYIRRCACAASSDESPGPKCSP,1.68
14,YSAYIRRCACAASSDESPGAKCSP,2.13
15,YSAYIRRCACAASSDESPGNKCSP,2.11
16,YSAYIRRCACAASSDESPGFKCSP,1.93
17,YSAYIRRCACAASSDESPGIKCSP,1.85
18,YSAYIRRCACAASSDESPGDKCSP,2.7
19,YSAYIRRCACAASSDESPGMKCSP,2.12
20,YSAYIRRCACAASSDESPGKKCSP,2.23
21,YSAYIRRCACAASSDESRGSKCSP,2.06
22,YSAYIRRCACAASSDESLGSKCSP,2.22
23,YSAYIRRCACAASSDESAGSKCSP,1.83
24,YSAYIRRCACAASSDESYGSKCSP,1.6
25,YSAYIRRCACAASSDESTGSKCSP,2.42

row,Variant,protein stability index
1,YSAYIRRCACAASSDESFGSKCSP,2.68
2,YSAYIRRCACAASSDESVGSKCSP,2.07
3,YSAYIRRCACAASSDESIGSKCSP,1.95
4,YSAYIRRCACAASSDESEGSKCSP,2.36
5,YSAYIRRCACAASSDESCGSKCSP,2.28
6,YSAYIRRCACAASSDESWGSKCSP,2.63
7,YSAYIRRCACAASSDESQGSKCSP,1.96
8,YSAYIRRCACAASSDESGGSKCSP,2.43
9,YSAYIRRCACAASSDESKGSKCSP,2.82
10,YSAYIRRCACAASSDESSGSKCSP,2.37
11,YSAYIRRCACAASSDESMGSKCSP,1.68
12,YSAYIRRCACAASSDESDGSKCSP,2.45
13,YSAYIRRCACAASSDESHGSKCSP,2.21
14,YSAYIRRCACAASSDESNGSKCSP,2.33
15,YSAYIRRCACAASSDESPTSKCSP,1.91
16,YSAYIRRCACAASSDESPKSKCSP,2.29
17,YSAYIRRCACAASSDESPISKCSP,1.89
18,YSAYIRRCACAASSDESPDSKCSP,2.83
19,YSAYIRRCACAASSDESPQSKCSP,2
20,YSAYIRRCACAASSDESPYSKCSP,2.35
21,YSAYIRRCACAASSDESPRSKCSP,2.04
22,YSAYIRRCACAASSDESPCSKCSP,4.24
23,YSAYIRRCACAASSDESPNSKCSP,2.24
24,YSAYIRRCACAASSDESPASKCSP,2.02
25,YSAYIRRCACAASSDESPHSKCSP,2.24

row,Variant,protein stability index
1,YSAYIRRCACAASSDESPLSKCSP,1.31
2,YSAYIRRCACAASSDESPESKCSP,2.31
3,YSAYIRRCACAASSDESPFSKCSP,2.32
4,YSAYIRRCACAASSDESPSSKCSP,1.51
5,YSAYIRRCACAASSDESPVSKCSP,1.03
6,YSAYIRRCACAASSDESPWSKCSP,4.05
7,YSAYIRRCACAASSDESPPSKCSP,2.31
8,YSAYIRRCACAASSDESPMSKCSP,1.74
9,YSAYIRRCACAASSDESPGSKDSP,2.22
10,YSAYIRRCACAASSDESPGSKRSP,2.14
11,YSAYIRRCACAASSDESPGSKMSP,1.71
12,YSAYIRRCACAASSDESPGSKASP,2.72
13,YSAYIRRCACAASSDESPGSKESP,2.96
14,YSAYIRRCACAASSDESPGSKWSP,2.41
15,YSAYIRRCACAASSDESPGSKNSP,2.28
16,YSAYIRRCACAASSDESPGSKLSP,1.78
17,YSAYIRRCACAASSDESPGSKQSP,2.02
18,YSAYIRRCACAASSDESPGSKISP,1.85
19,YSAYIRRCACAASSDESPGSKHSP,2.14
20,YSAYIRRCACAASSDESPGSKGSP,2.35
21,YSAYIRRCACAASSDESPGSKSSP,2.28
22,YSAYIRRCACAASSDESPGSKPSP,2.02
23,YSAYIRRCACAASSDESPGSKVSP,2.1
24,YSAYIRRCACAASSDESPGSKYSP,1.65
25,YSAYIRRCACAASSDESPGSKFSP,1.69

row,Variant,protein stability index
1,YSAYIRRCACAASSDESPGSKKSP,2.35
2,YSAYIRRCACAASSDESPGSKTSP,2.57
3,YSAYIRRCACAASSDESPGSHCSP,1.97
4,YSAYIRRCACAASSDESPGSFCSP,2.22
5,YSAYIRRCACAASSDESPGSMCSP,3.54
6,YSAYIRRCACAASSDESPGSCCSP,2.37
7,YSAYIRRCACAASSDESPGSLCSP,1.95
8,YSAYIRRCACAASSDESPGSECSP,2.3
9,YSAYIRRCACAASSDESPGSPCSP,2.93
10,YSAYIRRCACAASSDESPGSDCSP,1.92
11,YSAYIRRCACAASSDESPGSQCSP,1.98
12,YSAYIRRCACAASSDESPGSGCSP,2.02
13,YSAYIRRCACAASSDESPGSNCSP,2.11
14,YSAYIRRCACAASSDESPGSYCSP,2.8
15,YSAYIRRCACAASSDESPGSWCSP,2.23
16,YSAYIRRCACAASSDESPGSICSP,1.86
17,YSAYIRRCACAASSDESPGSRCSP,1.56
18,YSAYIRRCACAASSDESPGSSCSP,1.86
19,YSAYIRRCACAASSDESPGSTCSP,1.69
20,YSAYIRRCACAASSDESPGSVCSP,1.62
21,YSAYIRRCACAASSDESPGSACSP,2.23

# Variants of: B2
# Experiment: as above
# Details: c terminus: a fixed tail appended
row,Variant,protein stability index
1,ERINKNISDFGRQQLLPPFPSLHQ,2.17
2,EKINKNISDFGRQQLLPPFPSLHQ,2.64
3,EAINKNISDFGRQQLLPPFPSLHQ,2.3
4,ELINKNISDFGRQQLLPPFPSLHQ,2.21
5,ETINKNISDFGRQQLLPPFPSLHQ,2.85
6,EFINKNISDFGRQQLLPPFPSLHQ,1.74
7,EIINKNISDFGRQQLLPPFPSLHQ,2.14
8,ECINKNISDFGRQQLLPPFPSLHQ,2.35
9,EVINKNISDFGRQQLLPPFPSLHQ,2.12
10,EDINKNISDFGRQQLLPPFPSLHQ,2.72
11,EPINKNISDFGRQQLLPPFPSLHQ,2.65
12,EWINKNISDFGRQQLLPPFPSLHQ,1.73
13,EMINKNISDFGRQQLLPPFPSLHQ,2.24
14,ENINKNISDFGRQQLLPPFPSLHQ,2.29
15,EGINKNISDFGRQQLLPPFPSLHQ,2.51
16,EQINKNISDFGRQQLLPPFPSLHQ,2.36
17,EHINKNISDFGRQQLLPPFPSLHQ,1.96
18,EYINKNISDFGRQQLLPPFPSLHQ,1.58
19,ESINKNISDFGRQQLLPPFPSLHQ,2.35
20,IEINKNISDFGRQQLLPPFPSLHQ,1.76
21,YEINKNISDFGRQQLLPPFPSLHQ,2.11

row,Variant,protein stability index
1,REINKNISDFGRQQLLPPFPSLHQ,2.55
2,HEINKNISDFGRQQLLPPFPSLHQ,2.56
3,KEINKNISDFGRQQLLPPFPSLHQ,2.74
4,VEINKNISDFGRQQLLPPFPSLHQ,2.22
5,DEINKNISDFGRQQLLPPFPSLHQ,2.58
6,LEINKNISDFGRQQLLPPFPSLHQ,2.42
7,MEINKNISDFGRQQLLPPFPSLHQ,2.35
8,PEINKNISDFGRQQLLPPFPSLHQ,2.54
9,QEINKNISDFGRQQLLPPFPSLHQ,2.73
10,WEINKNISDFGRQQLLPPFPSLHQ,1.91
11,FEINKNISDFGRQQLLPPFPSLHQ,2.3
12,TEINKNISDFGRQQLLPPFPSLHQ,2.9
13,SEINKNISDFGRQQLLPPFPSLHQ,3.23
14,AEINKNISDFGRQQLLPPFPSLHQ,2.47
15,GEINKNISDFGRQQLLPPFPSLHQ,2.7
16,NEINKNISDFGRQQLLPPFPSLHQ,2.44
17,CEINKNISDFGRQQLLPPFPSLHQ,2.44
18,EECNKNISDFGRQQLLPPFPSLHQ,2.76
19,EEDNKNISDFGRQQLLPPFPSLHQ,3.77
20,EEENKNISDFGRQQLLPPFPSLHQ,3.78
21,EEANKNISDFGRQQLLPPFPSLHQ,3.1
